{
  "source": "patent US12187785B2",
  "about": "“Recombinant protein and fragments thereof, method for producing said recombinant protein, synthetic gene and use of sculptin or recombinant protein for preparing a medicament or pharmaceutical composition for the prophylaxis and/or treatment of thromboembolic diseases or as a direct and specific …” (priority 2017, dated 2025)",
  "molecules": {"B1": {"name": "GKPQGHPHDALEARSDAVHTAVPKMPKGGHGGFEPIPIDYDERALEARSDAVHTAVPKMPKGGLGGFEPIPIDYDERALEARSDAVHTAVPKMPKGGHGGFEPIPIDYDERALEARSDAVHTAVPKMPKGGHGGFEPIPIDYDERALHALEHHHHHH (protein)", "chain": "GKPQGHPHDALEARSDAVHTAVPKMPKGGHGGFEPIPIDYDERALEARSDAVHTAVPKMPKGGLGGFEPIPIDYDERALEARSDAVHTAVPKMPKGGHGGFEPIPIDYDERALEARSDAVHTAVPKMPKGGHGGFEPIPIDYDERALHALEHHHHHH", "modifications": "Sculptin recombinat protein", "notes": "recombinant His-tagged protein modified from tick sculptin, expressed in E. coli"}},
  "key": {"isolated human plasma [1]": {"system": "isolated human plasma", "experiment": "Thrombin time (TT) in isolated human plasma", "type": "biochemical", "details": "plasma of healthy human volunteers, incubation 3 min. at 37° C.", "experimental": "(§1) Plasma was obtained from blood of healthy human volunteer and incubated with different concentrations of recombinant protein. APTT, PT and TT were determined like experimental procedure. (A) Activated partial thromboplastin time (B) prothrombin time and (C) thrombin time. Ctrl is related to plasma and Sal is related to plasma plus saline.\n(§2) Finally, PT, aPTT and TT were assessed in isolated plasma of healthy human volunteers following incubation with recombinant protein for 3 min. at 37° C. […] Maximum test reading for aPTT was achieved following 12 nM, while for PT that was achieved following 6 nM of recombinant protein (FIGS. 11A and 11B)."}, "trypsin": {"target": "T1, trypsin (Bos taurus, UniProt P00760)", "T1 construct": "gene PRSS1", "T1 sequence (P00760 24-246)": "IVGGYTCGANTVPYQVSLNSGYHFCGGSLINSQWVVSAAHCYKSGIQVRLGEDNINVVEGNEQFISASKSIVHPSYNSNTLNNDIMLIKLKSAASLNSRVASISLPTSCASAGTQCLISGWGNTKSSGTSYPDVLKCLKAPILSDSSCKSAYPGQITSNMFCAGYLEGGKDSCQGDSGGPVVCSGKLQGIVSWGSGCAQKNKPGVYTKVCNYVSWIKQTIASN", "experiment": "Serine protease inhibition test, trypsin (chromogenic substrate)", "type": "biochemical", "details": "recombinant protein 1, 100, 200 nM; protease 100 pM; 6 h at 37° C.", "experimental": "(A) Inhibition of serine proteases through recombinant protein. Serine protease (100 pM; thrombin, plasmin, trypsin or factor Xa) was incubated with recombinant protein (1, 100 and 200 nM) in phosphate buffer 50 mM containing NaCl 150 mM and 0.1% of PEG 6000, pH 7.4 for 6 h at 37° C. Following addition of chromogenic substrate corresponding to reaction mixture, hydrolysis thereof was monitored at 405 nm. For factor Xa activity, buffer contained phosphatidylserine and phosphatidylcholine 50 μM. […] (B) Typical curves for hydrolysis of chromogenic substrate S-2238 (15 μM) by thrombin 0.1 nM in absence (trace a) or presence of recombinant protein (trace b, 15 pM; trace c, 30 pM; trace d, 60 pM and trace e, 100 pM) in phosphate buffer 50 mM containing NaCl 150 mM and 0.1% of PEG 6000, pH 7.4 at 37° C. (C) Residual activity of thrombin in presence of increasing concentration of recombinant protein. (D) Dose-response curves for thrombin inhibition by recombinant protein. Percentage of thrombin inhibition was plotted versus the concentration record of recombinant protein. Experimental condition of (C) and (D) is the same as in (B).\nThe first performed experiment was the test of serine proteases inhibition through recombinant protein. […] Hydrolysis of a chromogenic substrate through serine proteases in the presence and absence of recombinant protein was monitored in a spectrophotometer way. […]"}, "isolated human plasma [2]": {"system": "isolated human plasma", "experiment": "Activated partial thromboplastin time (aPTT) in isolated human plasma", "type": "biochemical", "details": "plasma of healthy human volunteers, incubation 3 min. at 37° C.", "experimental": "as §1, §2"}, "thrombin": {"target": "thrombin (Homo sapiens, UniProt P00734)", "experiment": "Incubation without serine protease in phosphate buffer, then thrombin inhibition test", "type": "in vitro ADME", "set-up": "Brown and cyan colors represent heavy and light chain of thrombin respectively", "details": "pH 7.4", "experimental": "Recombinant protein (10 μM) was incubated with or without serine protease 1 μM (thrombin, plasmin, trypsin or factor Xa) in phosphate buffer 50 mM containing NaCl 150 mM and 0.1% of PEG 6000, pH 7.4 for 4, 6, 7 or 18 h at 37° C. Reaction mixtures (20 μl) were split by SDS-PAGE. (A) hydrolysis SDS-PAGE (15%) of recombinant protein by serine proteases following 6 h of incubation. (B) Percentage of thrombin inhibition by recombinant protein following 6 h of incubation with serine protease (see experimental procedures). (C) hydrolysis SDS-PAGE (15%) of recombinant protein by serine proteases following 18 h of incubation. (D) Percentage of thrombin inhibition by recombinant protein following 18 h of incubation with serine protease (see experimental procedures). Numbering of (B) and (D) corresponds to numbering of (A) and (C), respectively, and recombinant protein control is represented by CTRL. […]\nAfterwards, it was determined whether serine proteases, like thrombin, plasmin, factor Xa and trypsin, hydrolyze recombinant protein. […] Upon addition of chromogenic substrate S-2238, the hydrolysis thereof by thrombin was monitored in spectrophotometer way. […]"}, "[3]": {"experiment": "Half-life in plasma ex vivo and in phosphate buffer containing thrombin", "type": "in vitro ADME", "details": "plasma ex vivo and phosphate buffer 50 mM with 1 μM thrombin, recombinant protein 10 μM, pH 7.4, 37° C."}},
  "data": [
    {"molecule": "B1", "values": [
      {"measurement": "TT", "setting": "isolated human plasma [1]", "result": "prolonged by recombinant protein in peak-molar range"},
      {"measurement": "inhibition of trypsin", "setting": "trypsin", "result": "did not inhibit"},
      {"measurement": "aPTT", "setting": "isolated human plasma [2]", "result": "prolonged by recombinant protein in concentration-dependent way"},
      {"measurement": "concentration at which maximum test reading for aPTT was achieved", "setting": "isolated human plasma [2]", "result": 12, "unit": "nM"},
      {"measurement": "thrombin inhibition after incubation without serine protease", "setting": "thrombin; 6 h at 37° C., control is 100 pM of fresh recombinant protein", "result": "inhibited thrombin in similar way to control"},
      {"measurement": "thrombin inhibition after incubation without serine protease", "setting": "thrombin; 18 h at 37° C., control of fresh recombinant protein", "result": "inhibited thrombin in similar way to control"},
      {"measurement": "Half-life", "setting": "[3]", "result": 8, "unit": "h"}
    ]}
  ]
}
